The target in assay [1] is T1, … (SEQ ID NO: 800), state with N-terminal leucine (LVFAYPDDD) (not fully specified (C-terminus); also: C-terminal azidolysine conjugated to DNA-streptavidin linker).
T1 construct: residue range inferred from the recognized N-terminal residue
T1 peptide: LVFAYPDDD
Description: single-molecule on-chip dynamic sequencing; recognition of N-terminal leucine. As for the experimental part: To illustrate how the kinetic parameters acquired from sequencing are sensitive to changes in sequence composition, sequencing was performed with a set of three peptides […] (SEQ ID NO: 798), […] (SEQ ID NO: 799), and […] (SEQ ID NO: 800)—that differ only at a single position, located immediately downstream from the PS961 N-terminal target leucine.
The semiconductor chip was placed in the sequencing device and a chip check was performed to test electronic circuit function and to optimize laser coupling alignment. The chip was then removed from the device socket and the chip was washed twice with 50 μL of 70% isopropanol, followed by four washes with 30 μL of wash buffer (50 mM MOPS pH 8.0, 60 mM potassium acetate, 50 mM glucose, 20 mM magnesium acetate, and surfactant mix) through a flow cell attached to the chip. A second chip check was then performed. The laser was then blocked via an integrated software-controlled shutter, peptide complex was added to a final concentration of 1-10 nM and mixed thoroughly, and the chip was incubated for 15 min. The chip was then washed six times with wash buffer, followed by addition of an imaging solution (wash buffer with 5 mM Trolox and an oxygen scavenging system). The laser was unblocked and the occupancy percentage (target 10-30%, Poisson distributed) was recorded by acquiring a photobleaching signal from a fluorophore attached to the peptide complex during 5 min of laser illumination. For NAA recognition-only assays, after peptide loading, labeled recognizer was added to a final concentration of 50 nM PS610, 100 nM PS691, or 250 nM PS961 (as indicated according to the experiment), and data was recorded for 10 hours.

Assay [2] has as its target T2, … (SEQ ID NO: 801), state with N-terminal methionine (MFAYPDDD) (not fully specified (C-terminus); also: C-terminal azidolysine conjugated to DNA-streptavidin linker).
T2 construct: residue range inferred from the recognized N-terminal residue
T2 peptide: MFAYPDDD
Description: single-molecule on-chip dynamic sequencing.

Assay [3] concerns the target T3, RLMoFAYPDDD (SEQ ID NO: 858), state with N-terminal methionine sulfoxide (MoFAYPDDD) (also: C-terminal azidolysine conjugated to DNA-streptavidin linker).
T3 construct: residue range inferred
T3 peptide: [Met(O)]FAYPDDD[Lys(N3)]
Description: single-molecule on-chip dynamic sequencing.

In assay [4] the target is T4, labeled peptide with N-terminal methionine (XAKLDEESILKQK-FITC, SEQ ID NO: 833, X = M).
T4 peptide: MAKLDEESILKQK-{FITC′}
Description: fluorescence polarization titration, FITC-labeled peptide (FIG. 9D). As for the experimental part:
As an example, methionine oxidation was examined. The thioether moiety of the methionine side chain is susceptible to oxidation during peptide synthesis and sequencing. […] It was determined computationally that methionine sulfoxide is highly unfavorable in the PS961 NAA binding pocket and that non-polar residues are preferred at P2 (FIG. 9E). The synthetic peptide […] (SEQ ID NO: 801) was sequenced, and two populations of traces with distinct kinetic signatures were observed—a first population containing leucine recognition with median PD of 0.86 s, and a second population with median PD of 0.35 s (FIG. 4C).
Binding affinity was measured by polarization using a labeled peptide. The polarization response and total intensity measurements were carried out at 20° C. on a microplate fluorometer with 480 nm excitation and 530 nm emission. The interaction of recognizer with labeled peptide containing a target N-terminal residue (XAKLDEESILKQK-FITC (SEQ ID NO: 833)) was performed in PBS buffer at pH 7.4 and readings were collected after 30 min. Multiple analyses were performed at increasing recognizer concentration at a fixed concentration of a target peptide to obtain a titration curve. An equilibrium polarization response at each concentration was plotted and fit to calculate the KD.
In general terms: Fluorescence polarisation rises when a labelled molecule tumbles more slowly, as on binding a larger partner.

Square brackets hold non-standard residues; d marks the D form. Primed or numbered codes have the meaning given here. Ends that are not written are not given here. Lys(N3) = [N-]=[N+]=NCCCC[C@H](N)C(=O)O; Met(O) = CS(=O)CC[C@H](N)C(=O)O; FITC′ = not defined here

B1: PS961 (designed binder)
chain: MPTAASATESAIEDTPAPARPEVDGRTKPKRQPRYHVVLWDDDDHTYQYVVVMLRSLFGHPPSRGYRMAKEMDTQGRVIVLTTTREHAELKRDQIHAFGRDRLLARSKGSMKASIEAEE
notes: also called PS961 (L, I, V); PS961 (LIV)
In the case of B1, in assay [1], the “median pulse duration (PD)” value was determined as 4.21 s. The binding result is given as “binds” in assay [2] and “no binding (tested: 250 nM PS961)” in assay [3]. For the same molecule, the Kd in assay [4] came to 947 nM.

As a reminder, the Kd is a measure of binding affinity in units of concentration.

Values taken from US20230213527A1 (QUANTUM SI, published 2023).
